Measurements as given in the supplement of paper PMC12855868.

B1: library; numbered along this chain (parent)
chain: MAAAGGARLLRAASAVLGGPAGRWLHHAGSRAGSSGLLRNRGPGGSAEASRSLSVSARARSSSEDKITVHFINRDGETLTTKGKVGDSLLDVVVENNLDIDGFGACEGTLACSTCHLIFEDHIYEKLDAITDEENDMLDLAYGLTDRSRLGCQICLTKSMDNMTVRVPETVADARQSIDVGKTS

Variants of: B1
Assay: scaled log2 fold change in cell abundance, elesclomol vs control (0 = silent mean, 1 = nonsense mean) (scaled log2 ratio); higher = higher viability under elesclomol (loss of FDX1 cuproptosis function)
Conditions: glucose 10 mM
Description: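 Deep mutational scan of full-length human FDX1: a pooled saturation-mutagenesis ORF library (every residue 2-184 mutated to all 19 amino acids plus stop, and silent codons where available) was expressed by lentivirus in FDX1-knockout ABC1 (14 days) or HEK293T (11 days) cells grown with elesclomol (ES) or DMSO control. Variant abundance came from ORF sequencing. The log2 fold change (ES vs control, mean of duplicates) was centred on the silent-variant mean (0) and scaled to the nonsense-variant mean (1). Higher values mean greater viability under ES, i.e. loss of FDX1 function in cuproptosis.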

[1] = with ABC1 FDX1 KO, elesclomol 5 nM, 14 days
[2] = with HEK293T FDX1 KO, elesclomol 40 nM, 11 days
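Also: variant abundance is its share of total variant reads in each endpoint sample, from next-generation sequencing of the integrated ORF PCR-amplified out of genomic DNA.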

Variant	scaled log2 fold change [1]	scaled log2 fold change [2]
S56T	0.0393	1.19
S56K	-0.052	0.357
S56C	-0.222	-0.162
S56V	0.301	-0.368
S56M	-0.109	0.0191
S56Y	-0.541	0.934
S56Q	-0.214	0.782
S56R	0.43	–
S56P	0.19	–
S56E	0.234	0.0723
S56W	-0.00445	0.0272
S56I	-0.125	-0.305
S56G	-1.11	0.888
S56D	-0.745	0.383
S56A	0.574	–
S56N	0.0549	1.09
S56L	0.557	1.06
S56F	0.177	–
S56H	0.238	0.979
R51T	0.0589	0.546
R51N	-0.079	1.03
R51M	-0.235	–
R51A	0.176	-0.204
R51F	0.269	0.664
R51G	0.508	-0.712

Variant	scaled log2 fold change [1]	scaled log2 fold change [2]
R51P	0.212	–
R51S	0.00287	-0.516
R51C	0.374	-0.169
R51Y	0.343	-0.174
R51D	-0.0949	-0.181
R51Q	-1.02	-0.603
R51V	-0.873	-0.419
R51W	0.239	1.75
R51L	0.0529	-0.247
R51K	-0.103	-1.33
R51H	-0.0671	-0.14
R51E	-0.316	-0.168
V55Y	0.0351	–
V55F	0.0901	-0.339
V55D	-0.0142	–
V55L	-0.283	–
V55P	-0.481	1.06
V55R	0.114	0.865
V55E	-0.307	–
V55Q	0.177	-0.526
V55C	0.313	0.374
V55N	-0.28	0.815
V55W	0.0864	-0.549
V55M	0.374	0.955
V55G	0.169	-0.106

Variant	scaled log2 fold change [1]	scaled log2 fold change [2]
V55S	0.162	-0.104
V55I	0.323	1.26
V55K	-0.469	-0.443
V55H	0.0403	1.23
V55T	0.178	-0.356
A57Q	0.12	-0.354
A57L	-0.263	0.149
A57K	0.162	-1.1
A57V	-0.164	0.356
A57F	-0.681	-0.202
A57N	0.029	0.245
A57T	0.0138	-0.39
A57I	0.296	–
A57Y	-0.233	0.129
A57W	-0.231	0.0227
A57G	-0.0446	1.2
A57C	0.479	–
A57R	0.224	0.591
A57M	-0.0569	-0.0232
A57D	0.102	-0.382
A57E	-0.0705	-0.933
A57S	0.247	0.0851
A57H	0.158	-0.799
S52D	0.202	0.946
S52G	0.447	-0.133

Variant	scaled log2 fold change [1]	scaled log2 fold change [2]
S52C	0.431	-0.0215
S52Q	0.212	1.17
S52K	0.174	-1.31
S52A	0.665	0.164
S52R	0.143	-1.18
S52H	-0.197	0.41
S52W	0.257	-0.162
S52L	0.253	-0.651
S52T	-0.921	-0.112
S52F	0.556	–
S52P	-0.128	–
S52Y	0.285	0.0679
S52N	-0.0586	-0.095
S52V	-0.785	-0.177
S52M	0.212	-0.953
S52I	-0.0467	-0.248
S52E	0.648	0.0946
R58D	-0.139	-0.303
R58G	-0.484	0.743
R58A	0.173	0.434
R58F	-0.105	-0.229
R58E	-0.288	-0.142
R58H	0.4	-0.194
R58C	0.0658	-0.099
A47K	0.89	0.778

Variant	scaled log2 fold change [1]	scaled log2 fold change [2]
A47H	0.813	1.05
A47Q	0.722	0.93
A47I	0.83	0.523
A47T	0.83	0.802
A47F	0.852	1.03
A47M	0.779	0.799
A47G	0.844	0.78
A47S	0.89	0.276
A47V	0.764	0.63
A47D	0.728	0.746
A47P	0.733	0.555
A47W	0.856	0.727
A47E	0.691	0.694
A47C	0.788	1.53
A47Y	0.8	0.534
A47L	0.835	0.437
A47R	0.994	1.12
A47N	0.833	1.56
A49Y	0.29	-1.02
A49L	-1.05	-0.62
A49I	0.653	1.22
A49M	-0.695	-1.02
A49H	0.394	0.441
A49K	0.256	-0.293
A49P	0.382	0.203

Variant	scaled log2 fold change [1]	scaled log2 fold change [2]
A49D	0.201	–
A49C	0.313	-0.749
A49G	-0.302	0.424
A49R	0.181	–
A49F	0.00966	-0.0173
A49T	0.0135	–
A49W	0.372	-0.679
A49N	-0.529	-0.853
A49E	0.155	–
A49V	-0.0734	–
A49Q	0.504	0.944
A49S	0.123	1.82
S50Y	-0.231	0.499
S50H	0.126	0.0217
S50T	0.208	–
S50N	0.219	-0.357
S50P	-0.659	–
S50G	0.758	–
S50D	-0.421	-0.999
S50C	0.19	0.37
S50E	0.344	0.116
S50M	-0.234	–
S50K	-0.433	–
S50R	-0.0286	0.0212
S50A	-0.353	0.141

Variant	scaled log2 fold change [1]	scaled log2 fold change [2]
S50I	0.293	-1.28
S50W	-0.149	–
S50L	-0.847	–
G45M	0.116	-0.315
G45W	0.411	0.942
G45Q	0.0494	0.513
G45S	0.0305	-0.567
G45N	0.148	0.842
G45V	0.149	-0.648
G45Y	0.16	0.922
G45T	0.167	-0.525
G45I	-0.00298	-0.325
G45P	-0.0714	-0.0345
G45L	0.411	-0.007
G45K	0.0509	-0.713
G45R	0.363	-0.475
L53V	0.281	-0.11
L53D	-0.0291	–
L53C	0.0732	-0.0888
L53H	0.262	-0.0475
L53Q	-0.164	–
L53Y	-0.194	-0.569
L53N	0.146	–
L53E	0.206	-0.803
L53S	-0.175	0.73

Variant	scaled log2 fold change [1]	scaled log2 fold change [2]
L53F	0.298	-0.0243
L53I	-1.25	–
L53A	0.205	0.346
L53W	0.155	0.498
L53G	-0.239	-1.17
L53M	0.133	0.406
L53P	0.118	–
L53K	0.299	0.00452
L53R	0.0529	-0.455
L53T	0.163	-0.488
S46K	0.678	0.519
S46N	0.338	0.643
S46A	0.558	0.128
S46F	0.279	0.769
S46R	0.93	0.639
S46V	0.489	0.421
S46Y	0.737	0.775
S46T	0.617	0.182
S46L	0.572	0.692
S46D	0.694	0.458
S46Q	0.68	0.186
S46G	0.864	0.651
S46P	0.0875	0.866
S46E	0.844	0.526
S46I	0.589	0.715

Variant	scaled log2 fold change [1]	scaled log2 fold change [2]
S46M	0.376	0.185
S46C	0.738	0.494
S46H	0.263	1.09
E48W	0.73	0.677
E48L	0.58	1.05
E48G	0.667	0.934
E48I	0.367	0.905
E48R	0.787	0.683
E48K	0.46	0.746
E48M	0.829	0.835
E48H	0.521	0.92
E48F	0.809	0.523
E48A	0.411	0.683
E48N	0.628	1.08
E48C	0.731	0.336
E48D	0.623	0.469
E48P	0.619	0.304
E48Q	0.747	0.877
E48T	0.74	-0.184
E48Y	0.494	1.46
E48S	0.616	0.679
E48V	0.47	0.255
S54F	0.138	0.0641
S54R	0.322	-0.406
S54D	-0.0274	-0.0231

Variant	scaled log2 fold change [1]	scaled log2 fold change [2]
S54P	0.151	-0.0299
S54H	-0.807	–
S54A	0.19	-0.116
S54Y	-0.0125	-0.0955
S54T	0.484	-0.46
S54N	-0.135	-0.939
S54K	-0.175	-1
S54G	-0.1	-0.00382
S54E	-0.297	0.751
S54M	-0.399	0.147
S54Q	0.175	1.12
S54I	0.459	–
S54V	-0.108	-1.29
S54C	-0.019	-0.176
S54W	0.208	-0.341
S54L	-0.261	-0.248
